From the DeepSol protein solubility set

Experiment: soluble on expression in E. coli; label from the status in PepcDB or PDB records

| Sequence | soluble on expression in E. coli |
| --- | --- |
| MGSDKIHHHHHHMIDVTFDPTLANTLAQSLKLTAIALPLDLQIGDLTRLTDAKNSYWGLKARYTKSGGASAEFAAVTTSQQRLQQVLATGATLRVWTSVNPADQLGWGWLCSQLVQAQFMGVIQRIQIPLSGPVMTEMGPVFMQNSTIGELDEPALEHDLATAKVVTAADWVAFSYHWQACYEDNAALRLILGGRVVGVPQDFLDPLVRTCYRPEQSTAQTLGRILDNYPIGMPNWWWQYRIDQIAKASVR | not soluble |
| MGPLWLDVAGYELSAEDRAILAHPTVGGVILFGRNYHDNQQLLALNKAIRQAAARPILIGVDQEGGRVQRFREGFSRIPPAQYYARAENGVELAEQGGWLMAAELIAHDVDLSFAPVLDMGFACKAIGNRAFGEDVQTVLKHSSAFLRGMKAVGMATTGKHFPGHGAVIADSHLETPYDERETIAQDMAIFRAQIEAGVLDAMMPAHVVYPHYDAQPASGSSYWLKQVLREELGFKGIVFSDDLSMEGAAVMGGPVERSHQALVAGCDMILICNKREAAVEVLDNLPIMEVPQAEALLKKQQFSYSELKRLERWQQASANMQRLIEQFSEHHHHHHHHHH | soluble |
| GSDKIHHHHHHMLTMKDIIRDGHPTLRQKAAELELPLTKEEKETLIAMREFLVNSQDEEIAKRYGLRSGVGLAAPQINISKRMIAVLIPDDGSGKSYDYMLVNPKIVSHSVQEAYLPTGEGCLSVDDNVAGLVHRHNRITIKAKDIEGNDIQLRLKGYPAIVFQHEIDHLNGVMFYDHIDKNHPLQPHTDAVEV | soluble |
| MVKKVLLINGPNLNLLGTREPEKYGTTSLSDIEQAAIEQAKLKNNDSEVLVFQSNTEGFIIDRIHEAKRQGVGFVVINAGAYTHTSVGIRDALLGTAIPFIEVHITNVHQREPFRHQSYLSDKAVAVICGLGVYGYTAAIEYALNY | soluble |
| MRIVPFGAAREVTGSAHLLLAGGRRVLLDCGMFQGKEEARNHAPFGFDPKEVDAVLLTHAHLDHVGRLPKLFREGYRGPVYATRATVLLMEIVLEDALKVMDEPFFGPEDVEEALGHLRPLEYGEWLRLGALSLAFGQAGHLPGSAFVVAQGEGRTLVYSGDLGNREKDVLPDPSLPPLADLVLAEGTYGDRPHRPYRETVREFLEILEKTLSQGGKVLIPTFAVERAQEILYVLYTHGHRLPRAPIYLDSPMAGRVLSLYPRLVRYFSEEVQAHFLQGKNPFRPAGLEVVEHTEASKALNRAPGPMVVLAGSGMLAGGRILHHLKHGLSDPRNALVFVGYQPQGGLGAEIIARPPAVRILGEEVPLRASVHTLGGFSGHAGQDELLDWLQGEPRVVLVHGEEEKLLALGKLLALRGQEVSLARFGEGVPV | soluble |
| MHSENQSKGVHYAKSQRLLEINHAHLQLMESLLDEGKKYNIFKPGIDPLQVNINIAALGGYYLINQHTLGLVYHISMVSPQALEARRKVIKETILSWLLVDPSSTAHE | not soluble |
| AEEFPVPNGFESAYREVDGVKLHYVKGGQGPLVMLVHGFGQTWYEWHQLMPELAKRFTVIAPDLPGLGQSEPPKTGYSGEQVAVYLHKLARQFSPDRPFDLVAHDIGIWNTYPMVVKNQADIARLVYMEAPIPDARIYRFPAFTAQGESLVWHFSFFAADDRLAETLIAGKERFFLEHFIKSHASNTEVFSERLLDLYARSYAKPHSLNASFEYYRALNESVRQNAELAKTRLQMPTMTLAGGGHGGMGTFQLEQMKAYAEDVEGHVLPGCGHWLPEECAAPMNRLVIDFLSRGRHHHHHH | soluble |
| MGSDKIHHHHHHAAEGRKDFNLYTLVPGSATVVLETDDLAGMIQGINELSCSKDRHFLYVSKLFSYLKLHLYTLLEDTPHGLSKQMNKVLLSFHEPDNDRNQVLYCSLGNGDYELVEKFIRKYCSSSFPSKLFDYKGEEIRIYPMPDDSFLACYFTSDFLVVSYQKKLIEQVIDARLSKKSLLTDASFAKVHEDKRARVAATIYARMQPLSMGKATDGIRSCTQLGGWTEFDMKMNGDAIYFSGVSHDTDTCLTFMNVLRQQQPVEDFPGDILPASTFFFNKRSVTDMQAMLDFTARQEYTTSTYSDYIRDRDGELLAYLKENAGGEIVTCLFHSTDTLSNPCAVMSIPLRDGQQAERVLQGMLRTAPKEVDGPPKPRTTFCKTPLRAYTLYVLPRNTLFTQLTGITESALYIYACFYEGRLVLAPDVESLTAYLRHLDKKEILDDTPGYEEAVVNLSPSYNFMMVADLGETFSQPENYVRLIPAFFFRNQEFFRHFILSAQFTCTDGIVYPNVVLIYKGESDDVS | not soluble |
| MAHHHHHHMSASAPRVGLLGAANIAWRAWTGVRANGMSVTRVGCRDVDRGRNFVKRVCDALKIDEAAVPAVCSYEELVSAADVDVVYIAIPVKARDHWVRECIKYKKHVVGEKPPATDAEMLRSWIEALDQQNLLYMDGTMLSHGKRVKEICAAVKQMGGPVKHIFANVTLGGDEAFLANNIRTNPELEPHGALGDLGWYCIRYALHLMDFQMPTEVTGRILKQNDKGAIISFIGDMTFEVGGEVALVSFFVSFEAAFEQTLHITTTEGMLQLDDMCLPMTSRPETVYYEVHNSSYDNVCESHNLHTEVKHTVNGDAPNSQCTELWGDVARILYADGEGDARRLKAKEESSRYWATVSWKTQAVMDKMLESALIGRNAAPTA | not soluble |
| MSLNKLVDAHCHVITDPDNTFCGDDGGSQGTLRCVMSSNPYDWNNLKKLAGRSTSKNDICVGFGVHPWYSHLFYVGSRRDKVSHYQDVLEYKNEEQFDSLVQVLPEPLDLEEYIKREFNDTLVSVIGEIGLDKLFRLPANGFYMQNEKARLTTVKVKLSHQETVFRRFCRLARHTSKPISIHDVKCHGKLNDICNEELLTYHSVKICLHSYTGSKETLLGQWLKKFPPDRIFVSLSKWINFKDPEEGDALVRSLPSTCILTETDYPIDNPDPSYQKALTEQLQYLNAQIARAWDETLDASQAALRVYENFQKFIKEGHHHHHH | not soluble |
| GAEVDQATKPAEAKYYIAGTITDATTGQELTTAKVTLGDKSVTSSFNEQVNYKAEGYALVVSADGYYPVKRQVYLNQVSDGQTSVATVNVALVSVEAAVIPPVVPPTDPETDINEGEATKVADKAVEVAKPSESTVTDMLAGTTATPEEKKALDETLEMAGGMKVGETTPEVLADGSILAITPVKFTNPIQDAPAMVPYFYNEGCELTGDVKEVAAPVTRADGAVAADIQKAFLSNAAKALNMNAGFVQKIGYTRISVLNGYSILGYTIKGQLVSKKLTFLISGKYYEGIVSYQKSVMIYPNYYSHDSHDSHDSHGFNPNAGGGSND | soluble |
| MKISLGPLLYCWEKQQVIDFYQQVANSQIPLVYLGEAVCSRRRELKWGDYLELAKMLKSAGKDVVLSTLALIEAPSEYTELKRQVDNGEFMIEANDMAAVYLAKEHKQPFVCGASINNYNRASLDILQRLGMQRFVMPVELSKTWLSQVVDKKPSFEVEVLGHGYLPLAHSARCFTARHSQLAKDSCETVCRQYSKGLLAQTQEAQPLLRLNGIQTQSASCVDLRSEISAMVKIGVDVFRVSPSSLACIAKADALVEALNSGAMDAQYPLSDEHCNGYWFGEAGLKSLS | soluble |
| MGSDKIHHHHHHMRILQIGKFYPIRGGIEKVMYDITMGLSQRQVYCDMLCASAEKQKPENLLLNDYARILCVSTWKKVAATMLSPAMIFRLRKINKEYDIIHIHHPDPMACLALFLSGYKGPVVLHWHSDILKQKMLLKLYSPLQNWLLRRAKVIVGTTPVYVQESPFLENIQRKVISVPIGIDEMKPVPGRVAQIKERYAGKKIIFSLGRLVEYKGYEYLIKASQKLNDDYIILIGGKGPLQEYLQSLIDELGVRKKVKLLGFIDDKDLPDYFGACDLFCLSSIWKTEAFGIVQIEAMSCGKPVIAMNIPESGVSWVNINRFSGINVKPEDADALAEAITAVLTDECLYEELARGARRRYETMFTKELMTELCLNLYSGVLDSSETDYPANKKE | not soluble |
| MPKQKASYEALLEEVVETLKHSPDGVNEIVESSAKYVDAANDLTKDELALISAYVKADLKEFSQSFEQSKSSPFYLMITNSIWQGLLDITDRTKVEWVELFADLEHQGLYQAGDMIGLGVLICDQCGHKTEFNHPTEIEPCSQCGGKAFSRQPLKP | not soluble |
| MGSVRKASAWLGLVDDNNDDERYYDDDYSEGPESGDAWVTDPRVKVASDVAEEKGRRIATVTPDSFRDARAIGELFRDGVPVIVNLTAMEGTDAKRVVDFAAGLIFGLRGSIERVSTRVFLLSPADTQVISGESAAHRSDGFFNQSLEHHHHHH | not soluble |
| MLRPVETPTREIKKLDGLWAFSLDRENCGIDQRWWESALQESRAIAVPGSFNDQFADADIRNYAGNVWYQREVFIPKGWAGQRIVLRFDAVTHYGKVWVNNQEVMEHQGGYTPFEADVTPYVIAGKSVRITVCVNNELNWQTIPPGMVITDENGKKKQSYFHDFFNYAGIHRSVMLYTTPNTWVDDITVVTHVAQDCNHASVDWQVVANGDVSVELRDADQQVVATGQGTSGTLQVVNPHLWQPGEGYLYELCVTAKSQTECDIYPLRVGIRSVAVKGEQFLINHKPFYFTGFGRHEDADLRGKGFDNVLMVHDHALMDWIGANSYRTSHYPYAEEMLDWADEHGIVVIDETAAVGFNLSLGIGFEAGNKPKELYSEEAVNGETQQAHLQAIKELIARDKNHPSVVMWSIANEPDTRPQGAREYFAPLAEATRKLDPTRPITCVNVMFCDAHTDTISDLFDVLCLNRYYGWYVQSGDLETAEKVLEKELLAWQEKLHQPIIITEYGVDTLAGLHSMYTDMWSEEYQCAWLDMYHRVFDRVSAVVGEQVWNFADFATSQGILRVGGNKKGIFTRDRKPKSAAFLLQKRWTGMNFGEKPQQGGKQ | soluble |
| MRVVYTSPRIENLQFLKSEFSNYSVIVLEEPKNDLFHDVLEGKITVDLYVRKISTQFPLYTRKLIEMLKELKSREIMQVEPYLEEVERLKNFSEGDERVREMEKRVNALYIDYTESFLKSDFDEIVEKVLRFSEAEAERIMLRDEMRAKALDDLDEAVIEAGMNHIKLAEILDAESVRIPEIIAERLGTRYLENPGEKLLKAFIFEEDDDLRLLAARNLIFTSLLEKREMEPDFDGDYPHFTHEQKLVRFVDKLDYEKCRKLFYRFWSPR | not soluble |
| ADAYFYNPITSQRSNFPLSYPMTAKSFMEKHGLLDREEYLKRLAENENNVELVNYPLEKLEFNRRVNKLNVLMISVNNLRADALNQEEMPNLYEFAQQNQNFRKHYSSSNDTYGAFGLFYGLPTSYASSIKAQGASPVLLDVLKDQGYTFGLFSGSGFEDDLYSEIVFRGVNLAEKLDGTQAHTDKQSIADWNMWLTEKANQPWFSYIEVTTVDNFESIPSNSKEDMSASERFKNAYEFAVKSADDKVGGIIKTLEDAQLLANTVVIVTSNHGSEFNETNTNSWGANSNYSRYQLQVPMVIHWPGMMAGEFNHSTSHLDLSVTLLQDMLGVSSNPYDYSSGRNLFDESRRRWILAGDTRELALITNNQTTVIDKFGNYKLYDENYKRMRDETPKLPVLMQGLTELQRFYSKSE | not soluble |
| MGSDKIHHHHHHMNYIYSFINGDFMRFFNREKEITEILSILEGNPDLVYFVYGPLNSGKTALISEIINNRIDKNKYVVFYINLRGIFISKYKDFIEVLFEEYEEDRKPVEIIKSLIKDVPSLCGIPTPKNTLEEILKKKTTKNVFKYITNVLMDIKKEGKQPIIIIDELQKIGDMKINGFLIYELFNYFVDLTKELHLCHVFCLSSDSLFIEQVYSEAMLKDRVDYILVDDFDKETALKFMDFLAEEILNKKLSDDEKELIYSYVGGKPILIIKVIKKLKIKGLKETLDEMLRDEMQKLKYFLEDIKEKDEESYNKIADALEIFKDSYEIEDIKIPKNIREFLVKKNILFLNPQKGTLKPQSYLVWNAIKRLL | not soluble |
